The results in this text go back to PMC12262184, “Structural insights into transcriptional regulation by the helicase RECQL5” (Nature Structural & Molecular Biology, 2025).

This test has as its target RPB1 subunit of human RNA polymerase II (human (endogenous in HeLa), UniProt P24928 1-1970). Put plainly: cryo-EM structure; EC_(REC-Apo): Pol II on anti-RPB1-protein G resin incubated with tenfold excess of nucleic acid scaffold, then tenfold excess of RECQL5_(1–620)-D157A, no nucleotide; eluted with RPB1 triheptapeptide repeat; crosslinked with 0.02% glutaraldehyde; graphene oxide grids. The note with it: both partners purified.

B1: RECQL5_(1–620)-D157A (domain or fragment)
chain: MSSHHTTFPFDPERRVRSTLKKVFGFDSFKTPLQESATMAVVKGNKDVFVCMPTGAGKSLCYQLPALLAKGITIVVSPLIALIQDQVDHLLTLKVRVSSLNSKLSAQERKELLADLEREKPQTKILYITPEMAASSSFQPTLNSLVSRHLLSYLVVAEAHCVSQWGHDFRPDYLRLGALRSRLGHAPCVALTATATPQVQEDVFAALHLKKPVAIFKTPCFRANLFYDVQFKELISDPYGNLKDFCLKALGQEADKGLSGCGIVYCRTREACEQLAIELSCRGVNAKAYHAGLKASERTLVQNDWMEEKVPVIVATISFGMGVDKANVRFVAHWNIAKSMAGYYQESGRAGRDGKPSWCRLYYSRNDRDQVSFLIRKEVAKLQEKRGNKASDKATIMAFDALVTFCEELGCRHAAIAKYFGDALPACAKGCDHCQNPTAVRRRLEALERSSSWSKTCIGPSQGNGFDPELYEGGRKGYGDFSRYDEGSGGSGDEGRDEAHKREWNLFYQKQMQLRKGKDPKIEEFVPPDENCPLKEASSRRIPRLTVKAREHCLRLLEEALSSNRQSTRTADEADLRAKAVELEHETFRNAKVANLYKASVLKKVADIHRASKDGQPYDM
notes: RECQL5 helicase, human, residues 1-620 (helicase D1 and D2 subdomains, RQC domain, IRI module with αN helix and KIX domain); lacks the unstructured region and the SRI domain; The purification is described for GST-tagged RECQL5_(1–620) in general; Used without nucleotide in EC_(REC-Apo); also called truncated RECQL5 construct; source: E. coli BL21-CodonPlus (DE3)-RIL, purified (glutathione …)
For B1, the binding result is recorded as “binds”.
